According to publication PMC9884024 (2022):

B1: MdHY5 (as used in the BLI assay) (natural protein)
chain: MQEQATSSLAASSLPSSSERSSSSAFHLEVKEGMESDEEIGRVPEIGGESAGASASARENGLLAGPDQVQTAGESQRKRGRNPADKESKRLKRLLRNRVSAQQARERKKAYLNDLEVRVKELEQKNSELDERLSTLQNENQMLRHILKNTTASRRGADGGANAD

Assays:
Experiment in all cases: BLI
[1] = biological target: B1
[2] = biological target: B1
[3] = biological target: MdMPK6-15G (as used in the BLI assay) (Malus domestica (apple))

koff [1] [s⁻¹]	Kd [2] [nM]	Kd [3] [nM]	koff [3] [s⁻¹]	Binder
0.00355	119			MdMPK6-02G (as used in the BLI assay) (enzyme) MEGGGRSADTMMSEAAPPSQPDPNHPQQHPPPPHHAMGGVESIPATLSHGGRFIQYNIFGNVFEVTAKYKPPIMPIGKGAYGIVCSALNSETNEHVAVKKIANAFDNRIDAKRTLREIKLLRHMDHENVVAIRDIIPPPQRNFFNDVYIAYELMDTDLHQIIRSNQALSEEHCQYFLYQILRGLKYIHSANVLHRDLKPSNLLLNANCDLKICDFGLARVTSETDFMTEYVVTRWYRAPELLLNSSDYTAAIDVWSVGCIFMELMDRKPLFPGRDHVHQLRLLMELIGTPSEAELQFLNENAKRYIRQLPLYRRQSFTEKFPHVHPSAIDLVEKMLTFDPTRRITVEDALAHPYLTSLHDISDEPVCLTPFSFDFEQHALSEEQMKELIYREALAFNPEYQRQ
		93.9	0.00105	B1
